Measurements: PMC4889915 (Nucleic Acids Research, 2016)

T1: AtTRB3-6xHis (Arabidopsis thaliana, UniProt Q9M2X3 1-295)
T1 sequence (looked up): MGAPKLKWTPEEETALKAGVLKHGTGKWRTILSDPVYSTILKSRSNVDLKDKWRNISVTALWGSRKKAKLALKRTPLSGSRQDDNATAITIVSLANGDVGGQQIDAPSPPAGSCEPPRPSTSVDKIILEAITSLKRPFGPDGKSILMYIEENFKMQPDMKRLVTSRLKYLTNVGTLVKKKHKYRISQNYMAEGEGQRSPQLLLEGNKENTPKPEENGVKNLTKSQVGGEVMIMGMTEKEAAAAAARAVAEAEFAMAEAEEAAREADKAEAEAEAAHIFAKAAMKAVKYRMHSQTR

T2: GST-HDA6 (Arabidopsis thaliana, UniProt Q9FML2 1-471)
T2 sequence (looked up): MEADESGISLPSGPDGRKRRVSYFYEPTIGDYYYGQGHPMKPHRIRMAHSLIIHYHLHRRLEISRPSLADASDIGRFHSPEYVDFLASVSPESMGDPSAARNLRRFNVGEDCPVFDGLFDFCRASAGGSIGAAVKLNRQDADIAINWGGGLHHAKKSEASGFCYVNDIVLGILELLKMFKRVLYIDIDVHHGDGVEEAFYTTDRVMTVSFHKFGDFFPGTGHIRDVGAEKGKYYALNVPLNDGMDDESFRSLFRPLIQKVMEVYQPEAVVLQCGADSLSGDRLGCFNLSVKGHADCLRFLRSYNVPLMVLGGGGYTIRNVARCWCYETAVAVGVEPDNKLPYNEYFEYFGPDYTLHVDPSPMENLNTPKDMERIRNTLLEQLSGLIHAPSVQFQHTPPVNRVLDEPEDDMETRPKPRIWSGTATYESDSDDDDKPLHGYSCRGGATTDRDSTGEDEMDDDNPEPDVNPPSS

B1: AtTRB2-6xHis (natural protein, Arabidopsis thaliana, UniProt Q9FJW5 1-299, looked up)
chain: MGAPKQKWTPEEEAALKAGVLKHGTGKWRTILSDTEFSLILKSRSNVDLKDKWRNISVTALWGSRKKAKLALKRTPPGTKQDDNNTALTIVALTNDDERAKPTSPGGSGGGSPRTCASKRSITSLDKIIFEAITNLRELRGSDRTSIFLYIEENFKTPPNMKRHVAVRLKHLSSNGTLVKIKHKYRFSSNFIPAGARQKAPQLFLEGNNKKDPTKPEENGANSLTKFRVDGELYMIKGMTAQEAAEAAARAVAEAEFAITEAEQAAKEAERAEAEAEAAQIFAKAAMKALKFRIRNHPW

Columns and labels:
Assay in all cases: pull-down
AtTRB3-6xHis = target: T1, AtTRB3-6xHis
AtTRB2-6xHis = target: B1
GST-HDA6 = target: T2, GST-HDA6

binding result (AtTRB3-6xHis)	binding result (AtTRB2-6xHis)	binding result (GST-HDA6)	Binder
binds	binds		GST-HDT4 (full-length) (enzyme, Arabidopsis thaliana, UniProt Q9M4T3 1-203, looked up) MEFWGIEIKPGKPFKVIQKDGFMVHASQVTLGDVEKVKKDETFAVYVKIGDDENGFMIGNLSQKFPQFSIDLYLGHEFEISHNSTSSVYLIGYRTFDAFDELDEEIDSDSELDEYMEQQIAALPQNEINPEEDDESDSDEMGLDEDDDSSDEEDVEAEAPLKVAPPSKKMPNGAFEIAKGGKKNKSSGGKKRCPFPCGPSCKK
		binds	B1
